Entries after “also recorded” stand apart in the source; their conditions may differ.
Assays:
mice [1] = test: Activity index in TAA model of hepatic encephalopathy; assay type: in vivo; details: TAA treated mice, 1 mg/kg Leptin daily for 5 days
Description: FIG. 10. […] Mice were treated with TAA, then 1 mg/kg Leptin was administrated daily for 5 days and activity index was evaluated.
Mice were treated with TAA to cause an experimental hepatic encephalopathy-brain damaged caused by liver dysfunction and common in people whose liver function deteriorates. The activity index of the animals was assessed. […] FIG. 11.

Cultured cardiomyocytes = test: Apoptosis of glucose-deprived cardiomyocytes by FACS; assay type: cell-based; details: glucose deprived condition for 1, 2, 6 h, 1 ug/ml Leptin
Description: In another experiment cultured cardiomyocytes exposed to glucose deprived condition for 1, 2, 6 h were treated with 1 ug/ml Leptin. Apoptotic cell death was detected by FACS analysis.

mice [2] = test: Mortality in TAA model of hepatic encephalopathy; assay type: in vivo; details: mice ad libitum or DR to 40%, with or without leptin
Description: Mice were maintained on Ad Librium or DR to 40% conditions. TAA was administered with or without leptin. Treated mortalilty rate was recorded everyday.

[3] = test system: norepinephrine and dopamine in the hippocampus; test: Hippocampal catecholamine measurements (HPLC-ECD); assay type: in vivo, mice; details: 1 mg/kg leptin daily
Description: Control mice received food ad-libitum. Diet-restricted mice received a diet of 57 kCal/week/mouse (2.16 g/day/mouse) as 60% of the requirement, or 38 kCal/week/mouse (1.44 g/day/mouse) for 40%/DR. DR was carried out for 10 days. Behavioral test was performed using the eight-arm spatial maze during the second week of experiment. During the behavioral tests, half of the animals in each group were injected intraperitoneally (i.p) with AICAR (1-2 mM equal to 258-516 mg/kg) or leptin (1 mg/kg) and the other half with saline. Mice were sacrificed by decapitation after the behavioral tests and the hippocampi were frozen at -70° C. Catecholamines were measured as described previously ([…] et al (1996), Brain Res. 732, 133-144. The assays for dopamine and NE were performed by HPLC separation and detection using HPLC-ECD. Values are presented as a concentration (ng/mg tissue).

mice [4] = test: Survival of mice under severe energy restriction (40% DR); assay type: in vivo; details: for survival time: Kaplan Meir log rank p<0.05
Description: Severe energy restriction leads to deterioration of neural function and eventually death. Since leptin can improve cognitive function following DR to 40% and prevents neural apoptosis, it was investigated whether it may also promote mice survival under these same severe conditions. In the first experiment, mice were fed ad libitum or DR to 40% for 12 days and injected daily with 1 mg/kg leptin or saline during the second week (5 days). 95% of the mice survived with leptin treatment compared to 65% in the control group (p<0.05). In a second experiment, mini-osmotic pumps delivering 0.05 mg/kg/h leptin or saline continuously for 16 days were implanted in mice under 40% DR (12 animals in each group). […] The 50% survival in the treated group increased from 9 to 14 days. (FIG. 5).

mice [5] = test: Eight-arm maze in LPS administered mice; assay type: in vivo; details: 1 mg/kg leptin daily
Description: The animals were placed in an eight-arm maze, which is a scaled-down version of that developed for rats (Randt et al, (1971) Science 172, 489-499; Ziv et al (1994) Neuroscience Lett, 170, 136-140). We used water deprivation achieved by limiting water consumption overnight and a reward of 50 μl of water presented at the end of each arm. The mice were tested until they made entries into all eight arms or until they completed 24 entries, whichever came first. […] Maze performance was calculated each day for five consecutive days. Results were presented as area under the curve (AUC) utilizing the formula: (day 2+day 3+day 4+day 5)−4*(day 1).
LPS administered mice were daily treated with 1 mg/kg leptin and then subjected to the eight arm maze.

AMPK = test: Hippocampal AMPK phosphorylation by immunoblotting; assay type: in vivo; details: 40% diet restricted mice, 1 mg/kg leptin for 72 h
Description: Total hippocampal Protein was extracted using TriFast reagent. Aliquots of the clarified lysates containing […] were denatured in Laemmli sample buffer (6% SDS 30%, glycerol, 0.02% bromophenol blue, 200 mM Tris-HCl (pH 6.8), and 250 mM-mercaptoethanol, at 95° C. for 5 min. The samples were resolved by SDS-PAGE (10% acrylamide), and blotted onto nitrocellulose membrane. Non-specific binding in a Western blot analysis was prevented by immersing the membranes in blocking buffer (5% nonfat dry milk in Tris-buffer saline-Tween 20 (TBS-T)), for 2 h at room temperature. The membranes were then exposed to the indicated antibodies diluted 1:1000 for 1 h at room temperature. AMPK, phospho-AMPK and PARP were obtained from Cell Signaling. Bax, bcl-2 and actin were from Santa Cruz Biotechnology Inc. (Santa Cruz, Calif.). The blots were rinsed in TBS-T and then incubated with horseradish peroxidase-conjugated goat anti-mouse antibodies 1:10,000 for 1 h at room temperature. Antibody-antigen complexes were visualized by detecting enhanced chemiluminescence with X-ray film.
Leptin is a key hormone in the regulation of energy balance and is known to modulate AMPK activity in other systems^15,16. The manner by which leptin may interact with AMPK in modulating brain function was further investigated. Leptin was analyzed functionality under different degrees of diet restriction. […]

B1: leptin: Murine leptin provided by A. Gertler; adipokine hormone, full leptin is a 146 amino acid sequence (protein, UniProt P41160 22-167, looked up)
Leptin: VPIQKVQDDTKTLIKTIVTRINDISHTQSVSAKQRVTGLDFIPGLHPILSLSKMDQTLAVYQQVLTSLPSQNVLQIANDLENLRDLLHLLAFSKSCSLPQTSGLQKPESLDGVLEASLYSTEVVALSRLQGSLQDILQQLDVSPEC
In the case of B1, the activity index (mice [1]) is reported as “reverse activity in diseased animals to the level of health controls; also recorded: reversed activity to control level”, the “apoptotic cell death (FACS)” value (Cultured cardiomyocytes) is reported as “reduced apoptotic death” and the “apoptotic cell death (FACS)” value (Cultured cardiomyocytes; listed as Leptin) is reported as “decreased apoptosis”. For the same molecule, the mortality (mice [2]) was “decreases mortality”, the mortality (mice [2]; listed as Leptin) was “decreased mortality” and the “dopamine concentrations in the hippocampus” value ([3]; AL group) was “down-regulated”. For the same molecule, the “dopamine concentrations in the hippocampus” value ([3]; DR group (40%)) was “did not induce any significant reduction”, the “NE concentration in the hippocampus” value ([3]; DR to 40%) was “reversed the reduction of NE” and the 50% survival (mice [4]; 40% DR, mini-osmotic pump 0.05 mg/kg/h leptin for 16 days, 9 days with saline) was 14 days. For the same molecule, the survival time (mice [4]; 40% DR, mini-osmotic pump 0.05 mg/kg/h leptin for 16 days) was “survived significantly longer”, the survival time (mice [4]; 40% DR, mini-osmotic pump 0.05 mg/kg/h leptin for 16 days, listed as Leptin) was “increases survival” and the mice survived (mice [4]; DR to 40% for 12 days, 1 mg/kg leptin daily during second week (5 days), 65% in control group, p<0.05) was 95%. For the same molecule, the “cognitive function in the eight arm maze” value (mice [5]) was “reverse cognitive function in diseased animals to the level of health controls; also recorded: improved impaired cognitive function” and the “hippocampal AMPK phosphorylation” value (AMPK) was “significantly reduced”.

From patent publication US9333240B2, “Compounds for improving nutritional status, cognition and survival” (YISSUM RESEARCH DEVELOPMENT COMPANY OF THE HEBREW …, priority 2005, dated 2016)
